Data reported in publication PMC6451096, “Molecular basis for transfer RNA recognition by the double-stranded RNA-binding domain of human dihydrouridine synthase 2”.

What was measured:
hDus2 full length [1] = target: T1, hDus2 full length (Homo sapiens, UniProt Q9NX74 1-493); assay: EMSA; same affinity as for deltaACS; value only in Fig S12e; EMSA: 50 mM Tris-HCl pH 8, 10% glycerol, 5 mM DTT, 150 mM ammonium acetate, 1 uM tRNALys3, 20 min room temperature; 6% native PAGE at 4 C; conditions: protein: recombinant; tRNA fold
hDus2 dsRBD R361A-R362A [2] = target: T2, hDus2 dsRBD R361A-R362A (Homo sapiens, UniProt Q9NX74 339-451, R361A;R362A); assay: EMSA; EMSA: 50 mM Tris-HCl pH 8, 10% glycerol, 5 mM DTT, 150 mM ammonium acetate, 1 uM tRNALys3, 20 min room temperature; 6% native PAGE at 4 C; conditions: protein: recombinant
T2 sequence: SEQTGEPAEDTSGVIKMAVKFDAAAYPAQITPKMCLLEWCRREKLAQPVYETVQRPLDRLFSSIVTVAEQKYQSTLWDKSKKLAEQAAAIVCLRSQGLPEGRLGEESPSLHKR

hDus2 dsRBD WT [3] = target: T3, hDus2 dsRBD WT (Homo sapiens, UniProt Q9NX74 339-451); assay: X-ray crystallography; 20 mM MgCl2 in reservoir; EMSA: 50 mM Tris-HCl pH 8, 10% glycerol, 5 mM DTT, 150 mM ammonium acetate, 1 uM tRNALys3, 20 min room temperature; 6% native PAGE at 4 C; conditions: protein: recombinant
T3 sequence: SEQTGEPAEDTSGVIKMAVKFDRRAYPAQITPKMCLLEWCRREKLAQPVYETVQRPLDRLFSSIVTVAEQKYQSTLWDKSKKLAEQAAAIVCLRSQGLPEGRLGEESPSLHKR

hDus2 dsRBD R361A = target: T4, hDus2 dsRBD R361A (Homo sapiens, UniProt Q9NX74 339-451, R361A); assay: EMSA; EMSA: 50 mM Tris-HCl pH 8, 10% glycerol, 5 mM DTT, 150 mM ammonium acetate, 1 uM tRNALys3, 20 min room temperature; 6% native PAGE at 4 C; conditions: protein: recombinant
T4 sequence: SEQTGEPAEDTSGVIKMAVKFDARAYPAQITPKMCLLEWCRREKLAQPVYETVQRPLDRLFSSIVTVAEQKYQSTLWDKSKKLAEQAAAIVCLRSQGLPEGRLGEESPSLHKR

hDus2 full length [4] = target: T1, hDus2 full length; assay: EMSA; same affinity as for full tRNA; value only in Fig S12e; EMSA: 50 mM Tris-HCl pH 8, 10% glycerol, 5 mM DTT, 150 mM ammonium acetate, 1 uM tRNALys3, 20 min room temperature; 6% native PAGE at 4 C; conditions: protein: recombinant; tRNA fold, anticodon stem removed
hDus2 dsRBD K419A = target: T5, hDus2 dsRBD K419A (Homo sapiens, UniProt Q9NX74 339-451, K419A); assay: EMSA; EMSA: 50 mM Tris-HCl pH 8, 10% glycerol, 5 mM DTT, 150 mM ammonium acetate, 1 uM tRNALys3, 20 min room temperature; 6% native PAGE at 4 C; conditions: protein: recombinant; label: 15N for tRNA-observed NMR; tRNA fold
T5 sequence: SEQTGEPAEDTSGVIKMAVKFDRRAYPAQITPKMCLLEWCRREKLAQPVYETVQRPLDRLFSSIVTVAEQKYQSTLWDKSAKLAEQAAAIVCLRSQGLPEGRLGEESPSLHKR

hDus2 dsRBD R397A = target: T6, hDus2 dsRBD R397A (Homo sapiens, UniProt Q9NX74 339-451, R397A); assay: as above; conditions: protein: recombinant; label: 15N for tRNA-observed NMR; tRNA fold
T6 sequence: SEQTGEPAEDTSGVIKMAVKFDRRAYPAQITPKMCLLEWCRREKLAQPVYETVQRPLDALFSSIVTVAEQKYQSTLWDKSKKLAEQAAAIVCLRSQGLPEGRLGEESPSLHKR

hDus2 dsRBD K420A = target: T7, hDus2 dsRBD K420A (Homo sapiens, UniProt Q9NX74 339-451, K420A); assay: as above; conditions: protein: recombinant; label: 15N for tRNA-observed NMR; tRNA fold
T7 sequence: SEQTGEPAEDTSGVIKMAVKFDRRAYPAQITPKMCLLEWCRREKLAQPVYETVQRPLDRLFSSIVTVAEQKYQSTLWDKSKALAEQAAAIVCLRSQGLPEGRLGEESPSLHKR

hDus2 dsRBD K371A = target: T8, hDus2 dsRBD K371A (Homo sapiens, UniProt Q9NX74 339-451, K371A); assay: as above; conditions: protein: recombinant; label: 15N for tRNA-observed NMR; tRNA fold
T8 sequence: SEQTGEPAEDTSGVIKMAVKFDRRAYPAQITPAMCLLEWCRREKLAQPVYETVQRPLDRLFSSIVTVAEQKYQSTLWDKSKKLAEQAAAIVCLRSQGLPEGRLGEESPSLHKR

hDus2 full length [5] = target: T1, hDus2 full length; assay: SEC-MALLS; 1:1 protein:RNA; EMSA: 50 mM Tris-HCl pH 8, 10% glycerol, 5 mM DTT, 150 mM ammonium acetate, 1 uM tRNALys3, 20 min room temperature; 6% native PAGE at 4 C; conditions: protein: recombinant; label: 15N for tRNA-observed NMR; tRNA fold
hDus2 dsRBD R362A = target: T9, hDus2 dsRBD R362A (Homo sapiens, UniProt Q9NX74 339-451, R362A); assay: EMSA; no impact of mutation; EMSA: 50 mM Tris-HCl pH 8, 10% glycerol, 5 mM DTT, 150 mM ammonium acetate, 1 uM tRNALys3, 20 min room temperature; 6% native PAGE at 4 C; conditions: protein: recombinant; label: 15N for tRNA-observed NMR; tRNA fold
T9 sequence: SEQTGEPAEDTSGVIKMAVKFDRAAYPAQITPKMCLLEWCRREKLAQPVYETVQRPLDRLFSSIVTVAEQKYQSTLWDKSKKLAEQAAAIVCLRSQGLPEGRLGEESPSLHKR

hDus2 dsRBD K419A-K420A = target: T10, hDus2 dsRBD K419A-K420A (Homo sapiens, UniProt Q9NX74 339-451, K419A;K420A); assay: EMSA; EMSA: 50 mM Tris-HCl pH 8, 10% glycerol, 5 mM DTT, 150 mM ammonium acetate, 1 uM tRNALys3, 20 min room temperature; 6% native PAGE at 4 C; conditions: protein: recombinant; label: 15N for tRNA-observed NMR; tRNA fold
T10 sequence: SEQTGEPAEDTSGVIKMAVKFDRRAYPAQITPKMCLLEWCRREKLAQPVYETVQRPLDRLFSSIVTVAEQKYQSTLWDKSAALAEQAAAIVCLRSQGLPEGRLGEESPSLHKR

hDus2 dsRBD R361A-R362A [6] = target: T2, hDus2 dsRBD R361A-R362A; assay: as above; conditions: protein: recombinant; label: 15N for tRNA-observed NMR; tRNA fold
hDus2 dsRBD WT [7] = target: T3, hDus2 dsRBD WT; assay: EMSA; apparent Kd shown only in histogram; EMSA: 50 mM Tris-HCl pH 8, 10% glycerol, 5 mM DTT, 150 mM ammonium acetate, 1 uM tRNALys3, 20 min room temperature; 6% native PAGE at 4 C; conditions: protein: recombinant; label: 15N for tRNA-observed NMR; tRNA fold

T1 sequence (Q9NX74 whole entry): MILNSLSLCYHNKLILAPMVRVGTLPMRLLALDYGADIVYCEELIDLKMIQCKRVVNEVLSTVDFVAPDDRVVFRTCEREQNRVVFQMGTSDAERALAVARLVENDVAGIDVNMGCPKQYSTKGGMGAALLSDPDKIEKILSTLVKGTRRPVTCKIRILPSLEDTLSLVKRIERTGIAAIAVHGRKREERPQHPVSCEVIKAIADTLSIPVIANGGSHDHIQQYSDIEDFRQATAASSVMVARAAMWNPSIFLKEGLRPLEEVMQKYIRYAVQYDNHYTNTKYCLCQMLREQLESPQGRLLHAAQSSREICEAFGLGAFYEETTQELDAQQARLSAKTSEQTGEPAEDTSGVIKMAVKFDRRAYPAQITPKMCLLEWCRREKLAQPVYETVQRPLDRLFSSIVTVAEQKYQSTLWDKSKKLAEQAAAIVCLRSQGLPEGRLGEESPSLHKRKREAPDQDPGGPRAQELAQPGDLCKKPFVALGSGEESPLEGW

B1: tRNAPhe transcript (structured_RNA)
RNA: GCGGAUUUAGCUCAGUUGGGAGAGCGCCAGACUGAAGAUCUGGAGGUCCUGUGUUCGAUCCACAGAAUUCGCACCA
binding result (hDus2 full length [1]): binds

B2: 11-nt palindromic dsRNA (dsRNA)
RNA 1: CGAACUUCGCG
RNA 2: CGAACUUCGCG
binding signal (hDus2 dsRBD R361A-R362A [2]): ~1 affinity relative to same mutant for tRNA (similar)
binding result (hDus2 dsRBD WT [3]): binds
binding signal (hDus2 dsRBD R361A): ~3.7 fold lower affinity than same mutant for tRNA

B3: tRNAPhe-deltaACS transcript (structured_RNA)
RNA: GCGGAUUUAGCUCAGUUGGGAGAGCGCCGAAGGGAGGUCCUGUGUUCGAUCCACAGAAUUCGCACCA
binding result (hDus2 full length [4]): binds

B4: human tRNALys3 (structured_RNA)
RNA: GCCCGGAUAGCUCAGUCGGUAGAGCAUCAGACUUUUAAUCUGAGGGUCCAGGGUUCAAGUCCCUGUUCGGGCGCCA
modifications: modified in vivo in E. coli (Psi39 mentioned)
binding signal (hDus2 dsRBD K419A): > 4 fold lower affinity than WT
binding signal (hDus2 dsRBD R397A): ~2 fold lower affinity than WT
binding signal (hDus2 dsRBD K420A): > 4 fold lower affinity than WT
binding signal (hDus2 dsRBD K371A): ~8 fold lower affinity than WT
binding result (hDus2 full length [5]): binds
binding result (hDus2 dsRBD R362A): binds
binding signal (hDus2 dsRBD K419A-K420A): ~17 fold lower affinity than WT
binding signal (hDus2 dsRBD R361A-R362A [6]): ~6 fold lower affinity than WT
binding result (hDus2 dsRBD WT [7]): binds
